The record followed here is paper PMC8167360.

This test addresses X domain (Mac1) plus Mac2 (Mac1–2) of SARS-CoV Nsp3, purified (SARS-CoV (strain Frankfurt)). The experiment in a line: ITC; […] ([…]) […] ([…]) […]; 25°C; VP-ITC; 20 mM Tris–HCl pH 8.5, 150 mM NaCl. (In general: In ITC the heat of successive injections is recorded.)

As a reminder, the Kd is a measure of binding affinity in units of concentration. The term stoichiometry N denotes the number of molecules, sites or subunits per partner or assembly.

B1: middle domain of human Paip1 (Paip1M), purified (domain or fragment)
chain: GSHMASMTGGQQMGRGSTLSEYVQDFLNHLTEQPGSFETEIEQFAETLNGCVTTDDALQELVELIYQQATSIPNFSYMGARLCNYLSHHLTISPQSGNFRQLLLQRCRTEYEVKDQAAKGDEVTRKRFHAFVLFLGELYLNLEIKGTNGQVTRADILQVGLRELLNALFSNPMDDNLICAVKLLKLTGSVLEDAWKEKGKMDMEEIIQRIENVVLDANCSRDVKQMLLKLVELRSS
For the molecule B1, the Kd was found to be 18.6 µM, the dH is -3.73 kcal/mol and the stoichiometry N is 1.14.
